Measured values reported in patent US20250262210A1 (TRUSTEES OF COLUMBIA UNIVERSITY IN THE CITY OF NEW YORK, published 2025).

Tests used:
[1] = molecular target: T1, KIAA1468 (human, UniProt Q9P260 2-1216, limits assumed); assay: IP/MS, LZTR1 wild type-FLAG, U87
T1 sequence (looked up): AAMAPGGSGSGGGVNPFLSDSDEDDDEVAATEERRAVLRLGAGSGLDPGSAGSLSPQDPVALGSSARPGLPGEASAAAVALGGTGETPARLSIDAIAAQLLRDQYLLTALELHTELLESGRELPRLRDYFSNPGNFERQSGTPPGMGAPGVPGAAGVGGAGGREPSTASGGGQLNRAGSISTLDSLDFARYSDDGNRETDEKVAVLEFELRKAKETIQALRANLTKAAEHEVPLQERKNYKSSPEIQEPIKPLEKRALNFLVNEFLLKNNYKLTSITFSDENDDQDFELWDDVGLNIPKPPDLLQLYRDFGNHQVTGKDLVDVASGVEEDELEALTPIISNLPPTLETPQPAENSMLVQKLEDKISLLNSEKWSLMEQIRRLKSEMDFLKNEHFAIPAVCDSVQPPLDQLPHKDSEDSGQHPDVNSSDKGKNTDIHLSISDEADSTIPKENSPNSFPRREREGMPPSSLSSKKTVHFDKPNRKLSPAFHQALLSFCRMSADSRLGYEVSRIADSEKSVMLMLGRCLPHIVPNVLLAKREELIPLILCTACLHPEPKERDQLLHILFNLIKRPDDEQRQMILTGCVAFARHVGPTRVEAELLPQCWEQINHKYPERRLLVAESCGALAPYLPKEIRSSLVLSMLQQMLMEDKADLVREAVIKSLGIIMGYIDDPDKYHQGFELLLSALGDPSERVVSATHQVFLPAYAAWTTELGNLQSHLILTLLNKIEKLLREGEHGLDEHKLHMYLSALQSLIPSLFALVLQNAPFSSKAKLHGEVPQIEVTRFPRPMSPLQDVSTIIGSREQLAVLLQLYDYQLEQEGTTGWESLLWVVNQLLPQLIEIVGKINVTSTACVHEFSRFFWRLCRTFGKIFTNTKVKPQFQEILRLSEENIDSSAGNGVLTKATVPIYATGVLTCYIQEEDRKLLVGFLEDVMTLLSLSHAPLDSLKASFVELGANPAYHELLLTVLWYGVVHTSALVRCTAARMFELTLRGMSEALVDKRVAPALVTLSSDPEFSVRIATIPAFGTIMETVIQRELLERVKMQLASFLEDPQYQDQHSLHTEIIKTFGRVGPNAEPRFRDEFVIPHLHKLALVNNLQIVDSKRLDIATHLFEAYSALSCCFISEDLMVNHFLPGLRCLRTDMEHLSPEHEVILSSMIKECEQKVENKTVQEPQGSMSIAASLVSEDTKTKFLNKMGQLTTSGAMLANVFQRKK
In short: (§1)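 Gel slices were reduced with 5 mM DTT, alkylated with 11 mM IAA and digested overnight at 37° C. with trypsin. Peptides were analysed on an Orbitrap Fusion Tribrid by LC-MS/MS.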

[2] = molecular target: T2, STK11IP (human, UniProt Q8N1F8 1-1088); assay: IP/MS, LZTR1 wild type-FLAG, U87
T2 sequence (looked up): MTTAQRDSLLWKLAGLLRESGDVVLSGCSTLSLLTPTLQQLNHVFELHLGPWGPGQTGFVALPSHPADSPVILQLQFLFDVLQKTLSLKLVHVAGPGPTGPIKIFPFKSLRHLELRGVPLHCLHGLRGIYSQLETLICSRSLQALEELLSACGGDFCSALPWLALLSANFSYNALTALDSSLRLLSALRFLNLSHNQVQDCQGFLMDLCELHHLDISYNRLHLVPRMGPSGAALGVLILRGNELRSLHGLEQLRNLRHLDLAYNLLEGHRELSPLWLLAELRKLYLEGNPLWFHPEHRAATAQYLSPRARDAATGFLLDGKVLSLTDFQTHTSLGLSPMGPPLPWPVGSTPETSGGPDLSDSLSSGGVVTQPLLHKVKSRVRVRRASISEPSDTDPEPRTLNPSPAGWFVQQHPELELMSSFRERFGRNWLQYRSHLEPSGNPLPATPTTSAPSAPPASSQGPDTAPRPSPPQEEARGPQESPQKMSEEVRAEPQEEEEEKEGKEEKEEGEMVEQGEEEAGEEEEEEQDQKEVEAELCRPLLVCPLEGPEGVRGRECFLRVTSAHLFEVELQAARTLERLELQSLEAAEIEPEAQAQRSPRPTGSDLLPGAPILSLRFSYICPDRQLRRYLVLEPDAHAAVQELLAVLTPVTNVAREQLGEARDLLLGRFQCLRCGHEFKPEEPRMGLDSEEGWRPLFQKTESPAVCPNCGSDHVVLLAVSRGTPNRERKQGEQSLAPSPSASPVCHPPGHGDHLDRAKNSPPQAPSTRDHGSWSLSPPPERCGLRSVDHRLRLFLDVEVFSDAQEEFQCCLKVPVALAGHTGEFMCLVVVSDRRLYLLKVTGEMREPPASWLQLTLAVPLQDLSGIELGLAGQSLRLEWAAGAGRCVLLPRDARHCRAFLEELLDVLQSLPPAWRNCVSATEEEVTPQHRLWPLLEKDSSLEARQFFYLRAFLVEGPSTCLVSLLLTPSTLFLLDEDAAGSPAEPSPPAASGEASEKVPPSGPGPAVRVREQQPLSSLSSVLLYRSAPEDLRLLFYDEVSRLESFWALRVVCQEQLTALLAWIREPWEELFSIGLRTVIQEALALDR
In short: as §1

- binding result [1]: binds
- binding result [2]: binds
B1: LZTR1-FLAG (other, human, UniProt Q8N653 1-840, looked up)
chain: MAGPGSTGGQIGAAALAGGARSKVAPSVDFDHSCSDSVEYLTLNFGPFETVHRWRRLPPCDEFVGARRSKHTVVAYKDAIYVFGGDNGKTMLNDLLRFDVKDCSWCRAFTTGTPPAPRYHHSAVVYGSSMFVFGGYTGDIYSNSNLKNKNDLFEYKFATGQWTEWKIEGRLPVARSAHGATVYSDKLWIFAGYDGNARLNDMWTIGLQDRELTCWEEVAQSGEIPPSCCNFPVAVCRDKMFVFSGQSGAKITNNLFQFEFKDKTWTRIPTEHLLRGSPPPPQRRYGHTMVAFDRHLYVFGGAADNTLPNELHCYDVDFQTWEVVQPSSDSEVGGAEVPERACASEEVPTLTYEERVGFKKSRDVFGLDFGTTSAKQPTQPASELPSGRLFHAAAVISDAMYIFGGTVDNNIRSGEMYRFQFSCYPKCTLHEDYGRLWESRQFCDVEFVLGEKEECVQGHVAIVTARSRWLRRKITQARERLAQKLEQEAAPVPREAPGVAAGGARPPLLHVAIREAEARPFEVLMQFLYTDKIKYPRKGHVEDVLLIMDVYKLALSFQLCRLEQLCRQYIEASVDLQNVLVVCESAARLQLSQLKEHCLNFVVKESHFNQVIMMKEFERLSSPLIVEIVRRKQQPPPRTPLDQPVDIGTSLIQDMKAYLEGAGAEFCDITLLLDGHPRPAHKAILAARSSYFEAMFRSFMPEDGQVNISIGEMVPSRQAFESMLRYIYYGEVNMPPEDSLYLFAAPYYYGFYNNRLQAYCKQNLEMNVTVQNVLQILEAADKTQALDMKRHCLHIIVHQFTKVSKLPTLRSLSQQLLLDIIDSLASHISDKQCAELGADI
notes: Expressed in HEK 293T, HeLa or U87 cells; used as cell lysate; also called LZTR1 wild type-FLAG; LZTR1 WT; not shown: FLAG tag at the C-terminus
